In general, Kd refers to the equilibrium constant for the complex coming apart. What is called koff is the first-order rate constant of dissociation. What is called kon is the rate constant with which the complex forms.

T1: human mature dimer BMP9 recombinant protein (manufactured by R&D systems, Cat#3209-BP) (human, UniProt Q9UK05 320-429)
T1 construct: Bought protein; also called human BMP9; human BMP9 recombinant protein (manufactured by R&D systems)
T1 sequence: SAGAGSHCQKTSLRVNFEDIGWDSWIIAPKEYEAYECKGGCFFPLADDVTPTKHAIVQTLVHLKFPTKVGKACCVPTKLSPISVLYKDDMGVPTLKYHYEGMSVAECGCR

B1: 10D5-2-3 antibody-humanized antibody HV3LV2 (antibody, V domains shown)
VH: EVQLVESGGGLVQPGGSLRLSCAASGFTFSNYWMNWVRQAPGKGLEWVAHIRLKSDNYATHYAESVRGRFTISRDDSKNSLYLQMNSLKTEDTAVYYCTGGSNYVFAFWGQGTLVTVSS
VL: DIVMTQSPDSLAVSLGERATINCRASESVDNYGISFMNWFQQKPGQPPKLLIYAASNQGSGVPDRFSGSGSGTDFTLTISSLQAEDVAVYFCQQSKEVPWTFGQGTKLEIK
notes: Expressed from pKANTEX93
B2: 10D5-2-3 antibody-humanized antibody HV4aLV0 (antibody, V domains shown)
VH: EVQLVESRGGLVQPGGSMRLSCAASGFTFSNYWMNWVRQAPGKGLEWVGHIRLKSDNYATHYAESVRGRFTISRDDSKSSLYLQMNSLKTEDTAVYYCAGGSNYVFAFWGQGTLVTVSS
VL: DIVMTQSPDSLAVSLGERATINCRASESVDNYGISFMNWYQQKPGQPPKLLIYAASNQGSGVPDRFSGSGSGTDFTLTISSLQAEDVAVYYCQQSKEVPWTFGQGTKLEIK
notes: Expressed from pKANTEX93
B3: 10D5-2-3 antibody-humanized antibody HV3LV6 (antibody, V domains shown)
VH: EVQLVESGGGLVQPGGSLRLSCAASGFTFSNYWMNWVRQAPGKGLEWVAHIRLKSDNYATHYAESVRGRFTISRDDSKNSLYLQMNSLKTEDTAVYYCTGGSNYVFAFWGQGTLVTVSS
VL: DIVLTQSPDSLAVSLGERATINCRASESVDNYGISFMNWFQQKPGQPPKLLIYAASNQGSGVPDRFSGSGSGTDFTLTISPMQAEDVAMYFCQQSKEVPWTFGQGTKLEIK
notes: Expressed from pKANTEX93
B4: 10D5-2-3 antibody-humanized antibody HV3LV0 (antibody, V domains shown)
VH: EVQLVESGGGLVQPGGSLRLSCAASGFTFSNYWMNWVRQAPGKGLEWVAHIRLKSDNYATHYAESVRGRFTISRDDSKNSLYLQMNSLKTEDTAVYYCTGGSNYVFAFWGQGTLVTVSS
VL: DIVMTQSPDSLAVSLGERATINCRASESVDNYGISFMNWYQQKPGQPPKLLIYAASNQGSGVPDRFSGSGSGTDFTLTISSLQAEDVAVYYCQQSKEVPWTFGQGTKLEIK
notes: Expressed from pKANTEX93
B5: 10D5-2-3 antibody-humanized antibody HV4bLV0 (antibody, V domains shown)
VH: EVQLVESGGGLVQPGGSLRLSCAASGFTFSNYWMNWVRQAPGKGLEWVAHIRLKSDNYATHYAESVRGRFTISRDDSKNSLYLQMNSLKTEDTAIYYCTGGSNYVFAFWGQGTLVTVSS
VL: DIVMTQSPDSLAVSLGERATINCRASESVDNYGISFMNWYQQKPGQPPKLLIYAASNQGSGVPDRFSGSGSGTDFTLTISSLQAEDVAVYYCQQSKEVPWTFGQGTKLEIK
notes: Expressed from pKANTEX93
B6: 10D5-2-3 antibody-humanized antibody HV3LV3 (antibody, V domains shown)
VH: EVQLVESGGGLVQPGGSLRLSCAASGFTFSNYWMNWVRQAPGKGLEWVAHIRLKSDNYATHYAESVRGRFTISRDDSKNSLYLQMNSLKTEDTAVYYCTGGSNYVFAFWGQGTLVTVSS
VL: DIVMTQSPDSLAVSLGERATINCRASESVDNYGISFMNWFQQKPGQPPKLLIYAASNQGSGVPDRFSGSGSGTDFTLTISPLQAEDVAVYFCQQSKEVPWTFGQGTKLEIK
notes: Expressed from pKANTEX93
B7: 10D5-2-3 antibody-humanized antibody HV4bLV2 (antibody, V domains shown)
VH: EVQLVESGGGLVQPGGSLRLSCAASGFTFSNYWMNWVRQAPGKGLEWVAHIRLKSDNYATHYAESVRGRFTISRDDSKNSLYLQMNSLKTEDTAIYYCTGGSNYVFAFWGQGTLVTVSS
VL: DIVMTQSPDSLAVSLGERATINCRASESVDNYGISFMNWFQQKPGQPPKLLIYAASNQGSGVPDRFSGSGSGTDFTLTISSLQAEDVAVYFCQQSKEVPWTFGQGTKLEIK
notes: Expressed from pKANTEX93

The experiment concerns the target T1, human mature dimer BMP9 recombinant …. Nature of the experiment: SPR (Biacore T100), antibody captured on anti-human IgG, human BMP9 (R&D 3209-BP) as analyte, 5 concentrations from 1 nM. As to the method: For the purpose of comparing binding activity to human BMP9 between c10D5-2-3 antibody and 22 types of 10D5-2-3 antibody-humanized antibodies obtained in Example 22-7, binding activity to human BMP9 recombinant protein (manufactured by R&D systems) was measured by surface plasmon resonance (SPR) using a BiacoreT100 instrument (manufactured by GE Healthcare bioscience).
Anti-human IgG antibody was immobilized onto a CM5 sensor chip (manufactured by GE Healthcare bioscience) using a Human Antibody Capture Kit (manufactured by GE Healthcare bioscience) in accordance with the accompanying protocol. 0.4 μg/mL of c10D5-2-3 antibody or each humanized antibody was applied to the flow cell onto which anti-human IgG antibody was immobilized, at a flow rate of 10 μL/min for 2 minutes.
Subsequently, human BMP9 recombinant protein (manufactured by R&D systems, Cat#3209-BP) was subjected to 2-fold serial dilution starting from […] to give 5 concentrations, and applied at a flow rate of 10 μL/min, and association was monitored over 3 minutes and dissociation over 3 minutes at a flow of 10 μL/min. The sensorgram thus obtained was analyzed by BiaEvaluation Software (manufactured by GE Healthcare bioscience) to calculate the rate constant of each antibody.
(In general: In SPR one partner is held on a chip, and binding of the other changes the refractive index at the surface.)
For B1, the Kd is 0.0116 nM, the koff came to 0.000596 s⁻¹ and the kon is 5.12e+07 M⁻¹ s⁻¹.
B2: the Kd was found to be 0.00924 nM, the koff is 0.00145 s⁻¹ and the kon was determined as 1.57e+08 M⁻¹ s⁻¹.
In the case of B3, the Kd worked out at 0.0119 nM, the koff is 0.000555 s⁻¹ and the kon was determined as 4.67e+07 M⁻¹ s⁻¹.
For B4 the same measures were 0.0114 nM, 0.00172 s⁻¹ and 1.51e+08 M⁻¹ s⁻¹.
Regarding B5, the Kd turned out to be 0.0114 nM, the koff was found to be 0.00164 s⁻¹ and the kon is 1.44e+08 M⁻¹ s⁻¹.
For B6 the same measures were 0.00949 nM, 0.000516 s⁻¹ and 5.43e+07 M⁻¹ s⁻¹.
For B7, the Kd was 0.0109 nM, the koff is 0.000588 s⁻¹ and the kon was determined as 5.39e+07 M⁻¹ s⁻¹.

Values taken from patent US20140056902A1 (Kyowa Kirin, published 2014).
